According to US20220073608A1:

Key:
[1] = biological target: T1, biotinylated hSEMA4D ECD-His (human) (UniProt Q92854); assay: FACS, blocking of biotinylated hSEMA4D ECD-His binding to 293F hPlexin B1 cells; Ab 0.00427 nM
T1 sequence (chain, biotinylated with Biotin-X-X-NHS at a molar ratio of 8,1; sites not stated): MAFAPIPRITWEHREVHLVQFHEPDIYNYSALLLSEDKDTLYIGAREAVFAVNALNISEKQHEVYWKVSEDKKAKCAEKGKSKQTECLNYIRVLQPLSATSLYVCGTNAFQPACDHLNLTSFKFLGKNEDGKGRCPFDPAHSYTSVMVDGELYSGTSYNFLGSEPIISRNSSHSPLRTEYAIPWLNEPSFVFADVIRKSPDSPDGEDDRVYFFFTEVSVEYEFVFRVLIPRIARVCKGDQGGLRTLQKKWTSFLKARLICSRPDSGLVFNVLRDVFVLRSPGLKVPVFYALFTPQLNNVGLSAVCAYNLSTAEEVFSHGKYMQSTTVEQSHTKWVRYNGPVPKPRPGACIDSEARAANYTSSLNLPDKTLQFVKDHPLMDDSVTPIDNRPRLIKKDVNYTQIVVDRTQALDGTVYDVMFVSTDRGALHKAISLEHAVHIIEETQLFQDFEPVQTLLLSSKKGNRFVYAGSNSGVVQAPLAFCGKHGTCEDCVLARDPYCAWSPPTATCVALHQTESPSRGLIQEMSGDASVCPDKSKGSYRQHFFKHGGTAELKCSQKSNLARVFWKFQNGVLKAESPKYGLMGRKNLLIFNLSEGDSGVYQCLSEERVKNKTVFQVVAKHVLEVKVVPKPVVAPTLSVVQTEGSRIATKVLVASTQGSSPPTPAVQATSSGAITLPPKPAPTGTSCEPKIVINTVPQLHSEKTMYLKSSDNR

[2] = biological target: T2, human SEMA4D, full length, on CHO-K1 cells (CHO-K1 hSEMA4D) (human) (UniProt Q92854); assay: FACS, CHO-K1 hSEMA4D cells; Ab 0.534 nM
T2 sequence (looked up): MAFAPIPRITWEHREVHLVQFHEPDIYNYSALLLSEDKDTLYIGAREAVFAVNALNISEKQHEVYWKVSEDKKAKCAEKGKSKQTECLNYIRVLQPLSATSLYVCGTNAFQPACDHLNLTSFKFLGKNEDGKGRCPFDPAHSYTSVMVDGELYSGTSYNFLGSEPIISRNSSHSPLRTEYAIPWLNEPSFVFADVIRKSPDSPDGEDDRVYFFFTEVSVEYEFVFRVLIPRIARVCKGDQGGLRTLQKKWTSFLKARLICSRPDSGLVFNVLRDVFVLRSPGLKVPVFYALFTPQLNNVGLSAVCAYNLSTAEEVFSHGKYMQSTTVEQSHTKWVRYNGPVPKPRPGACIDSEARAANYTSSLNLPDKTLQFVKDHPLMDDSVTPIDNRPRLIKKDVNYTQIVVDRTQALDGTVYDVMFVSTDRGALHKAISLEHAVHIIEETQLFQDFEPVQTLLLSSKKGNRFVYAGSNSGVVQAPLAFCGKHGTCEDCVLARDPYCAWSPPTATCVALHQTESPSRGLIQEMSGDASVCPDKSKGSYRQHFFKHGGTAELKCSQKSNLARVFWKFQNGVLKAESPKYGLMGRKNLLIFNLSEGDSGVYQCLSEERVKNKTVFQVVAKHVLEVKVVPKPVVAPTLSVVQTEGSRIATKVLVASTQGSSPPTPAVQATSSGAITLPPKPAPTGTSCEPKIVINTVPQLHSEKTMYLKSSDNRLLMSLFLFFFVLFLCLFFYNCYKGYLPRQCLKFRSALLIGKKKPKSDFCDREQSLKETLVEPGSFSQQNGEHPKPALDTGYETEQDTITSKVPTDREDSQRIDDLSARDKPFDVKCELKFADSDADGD

[3] = biological target: monkey SEMA4D, full length, on CHO-K1 cells (CHO-K1 cSEMA4D) (monkey); assay: FACS, CHO-K1 cSEMA4D cells; Ab 0.00427 nM
[4] = biological target: mouse SEMA4D, full length, on CHO-K1 cells (CHO-K1 mSEMA4D) (mouse) (UniProt O09126); assay: FACS, CHO-K1 mSEMA4D cells; Ab 0.000853 nM
[5] = biological target: T1, biotinylated hSEMA4D ECD-His (human); assay: FACS, blocking of biotinylated hSEMA4D ECD-His binding to 293F hPlexin B1 cells; Ab 333 nM
[6] = biological target: T1, biotinylated hSEMA4D ECD-His (human); assay: FACS, blocking of biotinylated hSEMA4D ECD-His binding to 293F hPlexin B1 cells; Ab 0.107 nM
[7] = biological target: monkey SEMA4D, full length, on CHO-K1 cells (CHO-K1 cSEMA4D) (monkey); assay: FACS, CHO-K1 cSEMA4D cells; Ab 0.107 nM
[8] = biological target: T2, human SEMA4D, full length, on CHO-K1 cells (CHO-K1 hSEMA4D) (human); assay: FACS, CHO-K1 hSEMA4D cells; Ab 0.000853 nM
[9] = biological target: T1, biotinylated hSEMA4D ECD-His (human); assay: FACS, blocking of biotinylated hSEMA4D ECD-His binding to 293F hPlexin B1 cells; Ab 2.67 nM
[10] = biological target: mouse SEMA4D, full length, on CHO-K1 cells (CHO-K1 mSEMA4D) (mouse) (UniProt O09126); assay: FACS, CHO-K1 mSEMA4D cells; Ab 2.67 nM
[11] = biological target: T2, human SEMA4D, full length, on CHO-K1 cells (CHO-K1 hSEMA4D) (human); assay: FACS, CHO-K1 hSEMA4D cells; Ab 0.107 nM
[12] = biological target: mouse SEMA4D, full length, on CHO-K1 cells (CHO-K1 mSEMA4D) (mouse) (UniProt O09126); assay: FACS, CHO-K1 mSEMA4D cells; Ab 13.3 nM
[13] = biological target: monkey SEMA4D, full length, on CHO-K1 cells (CHO-K1 cSEMA4D) (monkey); assay: FACS, CHO-K1 cSEMA4D cells; Ab 2.67 nM
[14] = biological target: T1, biotinylated hSEMA4D ECD-His (human); assay: FACS, blocking of biotinylated hSEMA4D ECD-His binding to 293F hPlexin B1 cells; Ab 13.3 nM
[15] = biological target: T1, biotinylated hSEMA4D ECD-His (human); assay: FACS, blocking of biotinylated hSEMA4D ECD-His binding to 293F hPlexin B1 cells; Ab 66.7 nM

| MFI (residual ligand binding) [1] | MFI [2] | MFI [3] | MFI [4] | MFI (residual ligand binding) [5] | MFI (residual ligand binding) [6] | MFI [7] | MFI [8] | MFI (residual ligand binding) [9] | MFI [10] | MFI [11] | MFI [12] | MFI [13] | MFI (residual ligand binding) [14] | MFI (residual ligand binding) [15] | Substance |
| --- | --- | --- | --- | --- | --- | --- | --- | --- | --- | --- | --- | --- | --- | --- | --- |
| 378 | 37.4 | 31.6 | 25 | 307 | 364 | 31.6 | 37.2 | 338 | 23.9 | 38 | 23.8 | 33.3 | 331 | 321 | Human IgG control (antibody) |
| 486 | 36.5 | 22.5 | 29.8 | 464 | 473 | 25.4 | 35.5 | 470 | 30.4 | 36.1 | 30.3 | 37.8 | 474 | 471 | Mouse IgG control (antibody) |
